Measurements from PMC12302554.

How the values were obtained:
[1] = tested on: BC19 CAR on CAR-T cells (anti-BCMA scFv, humanized anti-CD19 scFv, hinge); assay: flow cytometry; conditions: SPR: Biacore 1K, CM5 chip, protein coupled at 20 ug/mL in sodium acetate pH 5.0 (running buffer not given); cell binding: D-PBS, 4.5 g/L glucose, 5 mM MgCl2, 0.
[2] = tested on: BCMA-CD19-His fusion protein (bispecific BC19 CAR ectodomain: anti-BCMA scFv + humanized anti-CD19 scFv + hinge); assay: SPR; conditions: multi-cycle kinetics, 1:1 fit, 7.8-125 nM aptamer; SPR: Biacore 1K, CM5 chip, protein coupled at 20 ug/mL in sodium acetate pH 5.0 (running buffer not given); cell binding: D-PBS, 4.5 g/L glucose, 5 mM MgCl2, 0.

| Sequence | Kd [1] [nM] | Kd [2] [nM] |
| --- | --- | --- |
| TTCAGCACTCCACGCATAGCACGCTGCCGTGTGCTGCATGTGGTCGTGTGTCCGTGCCTATGCGTGCTACCGTGAA [FAM-Aptamer A3] | 17 |  |
| TTCAGCACTCCACGCATAGCACGCTGCCGTGTGCTGCATGTGGTCGTGTGTCCGTGCCTATGCGTGCTACCGTGAA [Aptamer A3] |  | 37 |
